Experimental data as given in patent US20110305749A1, “HIV-1 Envelope Polypeptides for HIV Vaccine” (priority 2008, published 2011).
Where two headings read alike, the source gives them in different places.

Assays:
[1] = system: Human Peripheral Blood Mononuclear Cells (PBMC); test: Immunosuppression of selected peptides: Con A stimulated lymphocyte proliferation (EdU incorporation); assay type: cell-based; details: Con A (5 ug/mL); for inhibition of lymphocyte proliferation: peptide concentration of 50 uM, 72 hrs, relative to Con A stimulated cells without peptide (FIG. 10); for inhibition profile of proliferation at various peptide concentrations: dose-dependence (FIG. 11)
Excerpt: The peptides are dimerized via the C-terminal Cysteines and added at the concentrations indicated below.

[2] = system: Human PBMC; test: Mixed leukocyte reaction: PBMC stimulated by Jurkat cells expressing HIV envelope variants; details: PBMC with Mitomycin C arrested Jurkat stimulator cells expressing the envelope, 1:1, 96 hrs (FIG. 12)
Experimental: The experiment utilizes Human PBMC prepared fresh from healthy donors. These are stimulated by adding a human T cell line (Jurkat) at a 1:1 ratio. The jurkat cells have been irreversible arrested by incubating them with 50 ug/mL Mitomycin C for 1 hour prior to PBMC stimulation. Cultures are maintained and lymphocyte proliferation is measured 96 hrs later by EdU incorporation and Click-iT labelling with Oregon Green (Invitrogen, Denmark) as recommended by the manufacturer. The degree of activated lymphocytes is proportional to the flourescence detection.

[3] = system: BAB/No Ag; details: R, i.m.; cited from earlier work
[4] = system: HIV-1; details: M, cited from earlier work
[5] = system: IFN-gamma; test: Cytokine modulation: IFN-gamma in supernatant of ConA stimulated PBMC (ELISA); details: 50 uM peptide, Con A stimulation of PBMC, 72 hrs, ELISA (FIG. 14)
Experimental: (§1) Donor PBMC's were maintained at 10^5 cells/well in a 96-well. […] After 72 hrs, lymphocyte proliferation was measured and supernatants analysed by ELISA for levels of the proinflammatory cytokines, IFN-gamma (FIG. 14 grey bar) and TNF-alpha (FIG. 14 black bar).

[6] = system: TNF-alpha; test: Cytokine modulation: TNF-alpha in supernatant of ConA stimulated PBMC (ELISA); details: 50 uM peptide, Con A stimulation of PBMC, 72 hrs, ELISA (FIG. 14)
Experimental: as §1

[7] = system: Influenza; details: M, i.m.; cited from earlier work
[8] = HSV-3; M, i.m./i.d.; cited from earlier work
[9] = system: HIV-1; details: C, i.m.; cited from earlier work
[10] = system: β-gal; details: M, i.m.; cited from earlier work
[11] = system: HSV-2; details: M, i.m.; cited from earlier work

Molecule: LQNRRGLDLLFLKEGGLC (HIV) [CKS-17, reference compound]
- inhibition of lymphocyte proliferation [1]: 93%

Molecule: LQARVLAVERYLKDQQLLRIWGC [HIV G19R]
- inhibition profile of proliferation at various peptide concentrations [1]: less steep
- inhibition of lymphocyte proliferation [1]: 15%

Molecule: LQARILAVETLIQNQQLLNLWGC [HIV M/O chimera]
- inhibition profile of proliferation at various peptide concentrations [1]: less steep
- inhibition of lymphocyte proliferation [1]: 22%
- lymphocyte proliferation (activation of PBMC) [2]: decrease is relieved

Molecule: RANTES
- Effects: Ab/IgG [3]: ↑^e
- Effects: Protection [3]: =
- Effects: CTL ([4]; i.m.): ↑

Molecule: MCP-1
- Effects: Ab/IgG [3]: ↑^e
- Effects: Protection [3]: ↑

Molecule: LQARVLAVERYLKDQQLLGIWGC [CS-3]
- inhibition of lymphocyte proliferation [1]: 82%
- IFN-γ secretion [5]: significantly reduces
- TNF-α secretion [6]: significantly reduces

B1: CD86 (protein, UniProt P42082 24-309, looked up)
T-lymphocyte activation …: VSVETQAYFNGTAYLPCPFTKAQNISLSELVVFWQDQQKLVLYEHYLGTEKLDSVNAKYLGRTSFDRNNWTLRLHNVQIKDMGSYDCFIQKKPPTGSIILQQTLTELSVIANFSEPEIKLAQNVTGNSGINLTCTSKQGHPKPKKMYFLITNSTNEYGDNMQISQDNVTELFSISNSLSLSFPDGVWHMTVVCVLETESMKISSKPLNFTQEFPSPQTYWKEITASVTVALLLVMLLIIVCHKKPNQPSRPSNTASKLERDSNADRETINLKELEPQIASAKPNAE
- Effects: Ab/IgG ([4]; i.m.): =
- Effects: CTL ([4]; i.m.): ↑
- Effects: DTH ([4]; i.m.): ↑
- Effects: IgG1/IgG2a ([4]; i.m.): =
- Effects: CTL [7]: ↑
- Effects: Ab/IgG [8]: =
- Effects: DTH [8]: =
- Effects: IgG1/IgG2a [8]: =
- Effects: Protection [8]: =
- Effects: CTL [9]: ↑

B2: MIP-1α (protein, UniProt P10855 24-92, looked up)
C-C motif chemokine 3: APYGADTPTACCFSYSRKIPRQFIVDYFETSSLCSQPGVIFLTKRNRQICADSKETWVQEYITDLELNA
- Effects: Ab/IgG [3]: ↑^e
- Effects: Protection [3]: ↑
- Effects: Ab/IgG ([4]; i.m./i.n.): ↑
- Effects: CTL ([4]; i.m./i.n.): ↑
- Effects: DTH ([4]; i.m./i.n.): ↑
- Effects: IgG1/IgG2a ([4]; i.m./i.n.): ↓
- Effects: CTL ([4]; i.m.): ↑
- Effects: IgG1/IgG2a ([4]; i.m.): ↑

B3: MIP-1β (protein, UniProt P14097 24-92, looked up)
C-C motif chemokine 4: APMGSDPPTSCCFSYTSRQLHRSFVMDYYETSSLCSKPAVVFLTKRGRQICANPSEPWVTEYMSDLELN
- Effects: Ab/IgG [3]: ↑^e
- Effects: Protection [3]: ↓

B4: CD40L (protein, UniProt P27548 112-260, looked up)
CD40 ligand, soluble form: MQRGDEDPQIAAHVVSEANSNAASVLQWAKKGYYTMKSNLVMLENGKQLTVKREGLYYVYTQVTFCSNREPSSQRPFIVGLWLKPSSGSERILLKAANTHSSSQLCEQQSVHLGGVFELQAGASVFVNVTEASQVIHRVGFSSFGLLKL
- Effects: Ab/IgG [10]: ↑
- Effects: CTL [10]: ↑
- Effects: IgG1/IgG2a [10]: ↓
- Effects: Protection [10]: ↑

B5: CD80 (protein, UniProt Q00609 38-306, looked up)
T-lymphocyte activation …: VDEQLSKSVKDKVLLPCRYNSPHEDESEDRIYWQKHDKVVLSVIAGKLKVWPEYKNRTLYDNTTYSLIILGLVLSDRGTYSCVVQKKERGTYEVKHLALVKLSIKADFSTPNITESGNPSADTKRITCFASGGFPKPRFSWLENGRELPGINTTISQDPESELYTISSQLDFNTTRNHTIKCLIKYGDAHVSEDFTWEKPPEDPPDSKNTLVLFGAGFGAVITVVVIVVIIKCFCKHRSCFRRNEASRETNNSLTFGPEEALAEQTVFL
- Effects: Ab/IgG ([4]; i.m.): =
- Effects: CTL ([4]; i.m.): =
- Effects: DTH ([4]; i.m.): =
- Effects: Ab/IgG [11]: =
- Effects: DTH [11]: = and ↑
- Effects: IgG1/IgG2a [11]: =
- Effects: Protection [11]: = and ↑
- Effects: CTL [7]: =

B6: TCA-3 (protein, UniProt P10146 24-92, looked up)
C-C motif chemokine 1: KSMLTVSNSCCLNTLKKELPLKFIQCYRKMGSSCPDPPAVVFRLNKGRESCASTNKTWVQNHLKKVNPC
- Effects: Ab/IgG ([4]; i.m.): ↓
- Effects: CTL ([4]; i.m.): ↑
- Effects: DTH ([4]; i.m.): ↑
- Effects: IgG1/IgG2a ([4]; i.m.): ↓
